According to article PMC10321299:

Molecular target: SpyCatcher-tagged ferritin
Test: SDS-PAGE of the covalent conjugate; purified SC-FN and rePO-ST mixed in vitro overnight (12 hours) at 4 °C in molar ratios 1:8 to 1:28; isopeptide bond between SpyTag and SpyCatcher; new band on SDS-PAGE

SpyTag-tagged rePO (recombinant PcrV-OprI with SpyTag at the C-terminus) (from UniProt G3XD49 28-294; P11221 25-83)
proportion of conjugated ferritin: 70%
